B1: Azoarcus group I ribozyme (parent)
chain: GUGCCUUGCGCCGGGAAACCACGCAAGGGAUGGUGUCAAAUUCGGCGAAACCUAAGCGCCCGCCCGGGCGUAUGGCAACGCCGAGCCAAGCUUCGGCGCCUGCGCCGAUGAAGGUGUAGAGACUAGACGGCACCCACCUAAGGCAAACGCUAUGGUGAAGGCAUAGUCCAGGGAGUGGCGAAAGUCACACAAACCGG

Variants of: B1
Assay: reverse-splicing fitness (ratio to wild type); higher = more active; in vitro selection; Mg2+ level not given
Procedure, shortened: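 An in vitro group I ribozyme library with randomized positions was T7-transcribed and gel-purified. In triplicate, 10 pmol RNA in EPPS pH 7.5 was reacted with 50 pmoles of a 30-nt RNA substrate for 1 h at 37 °C across several added MgCl2 levels (1–48 mM), then stopped with EDTA. Products were reverse transcribed from a substrate-complementary primer, PCR-amplified and sequenced (HiSeq 4000). Fitness is a variant's read proportion after selection over that before, normalised to wild type.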

Compared with GUGCCUUGCGCCGGGAAACCACGCAAGGGAUGGUGUCAAAUUCGGCGAAACCUAAGCGCCCGCCCGGGCGUAUGGCAACGCAGAGCCAAGCUUCGGCGCCUGCGCCGAUGGAGGUGUAGAGACUAGACGGCACCCACCUAAGGCCAACGCUAUGGUGAAGGCAUAGUCCAGGGAGAGGCGAAAGUCACACAAACCGG [C82A A111G A145C U176A], GUGCCUUGCGCCGGGAAACCACGCAAGGGAUGGUGUCAAAUUCGGCGAAACCUAAGCGCCCGCCCGGGCGUAUGGCAACGCAGAGCCAAGCUUCGGCGCCUGCGCCGAUGGAGGUGUAGAGACUAGACGGCACCCACCUAAGGCCAACGCUAUGGUGAAGGCAUAGUCCAGGGAGGGGCGAAAGUCACACAAACCGG [C82A A111G A145C U176G] is lower in reverse-splicing fitness: 0.181 for the first, 0.0484 for the second.

Going from GUGCCUUGCGCCGGGAAACCACGCAAGGGAUGGUGUCAAAUUCGGCGAAACCUAAGCGCCCGCCCGGGCGUAUGGCAACGCAGAGCCAAGCUUCGGCGCCUGCGCCGAUGGAGGUGUAGAGACUAGACGGCACCCACCUAAGGCCAACGCUAUGGUGAAGGCAUAGUCCAGGGAGCGGCGAAAGUCACACAAACCGG [C82A A111G A145C U176C] to GUGCCUUGCGCCGGGAAACCACGCAAGGGAUGGUGUCAAAUUCGGCGAAACCUAAGCGCCCGCCCGGGCGUAUGGCAACGCAGAGCCAAGCUUCGGCGCCUGCGCCGAUGGAGGUGUAGAGACUAGACGGCACCCACCUAAGGCGAACGGUAUGGUGAAGGCAUAGUCGAGGGAGUGGCGAAAGUCACACAAACCGG [C82A A111G A145G C150G C169G], the reverse-splicing fitness falls from 0.248 to 0.00786.

First: GUGCCUUGCGCCGGGAAACCACGCAAGGGAUGGUGUCAAAUUCGGCGAAACCUAAGCGCCCGCCCGGGCGUAUGGCAACGCAGAGCCAAGCUUCGGCGCCUGCGCCGAUGGAGGUGUAGAGACUAGACGGCACCCACCUAAGGCGAACGGUAUGGUGAAGGCAUAGUCAAGGGAGUGGCGAAAGUCACACAAACCGG [C82A A111G A145G C150G C169A]
Second: GUGCCUUGCGCCGGGAAACCACGCAAGGGAUGGUGUCAAAUUCGGCGAAACCUAAGCGCCCGCCCGGGCGUAUGGCAACGCAGAGCCAAGCUUCGGCGCCUGCGCCGAUGGAGGUGUAGAGACUAGACGGCACCCACCUAAGGCGAACGGUAUGGUGAAGGCAUAGUCAAGGGAGGGGCGAAAGUCACACAAACCGG [C82A A111G A145G C150G C169A U176G]
The reverse-splicing fitness of the first is higher: 0.0093 for the first, 0.00909 for the second.

Compared with GUGCCUUGCGCCGGGAAACCACGCAAGGGAUGGUGUCAAAUUCGGCGAAACCUAAGCGCCCGCCCGGGCGUAUGGCAACGCAGAGCCAAGCUUCGGCGCCUGCGCCGAUGGAGGUGUAGAGACUAGACGGCACCCACCUAAGGCGAACGGUAUGGUGAAGGCAUAGUCAAGGGAGCGGCGAAAGUCACACAAACCGG [C82A A111G A145G C150G C169A U176C], GUGCCUUGCGCCGGGAAACCACGCAAGGGAUGGUGUCAAAUUCGGCGAAACCUAAGCGCCCGCCCGGGCGUAUGGCAACGCAGAGCCAAGCUUCGGCGCCUGCGCCGAUGGAGGUGUAGAGACUAGACGGCACCCACCUAAGGCGAACGGUAUGGUGAAGGCAUAGUCAAGGGAGAGGCGAAAGUCACACAAACCGG [C82A A111G A145G C150G C169A U176A] is lower in reverse-splicing fitness: 0.0154 for the first, 0.0148 for the second.

Compared with GUGCCUUGCGCCGGGAAACCACGCAAGGGAUGGUGUCAAAUUCGGCGAAACCUAAGCGCCCGCCCGGGCGUAUGGCAACGCAGAGCCAAGCUUCGGCGCCUGCGCCGAUGGAGGUGUAGAGACUAGACGGCACCCACCUAAGGCGAACGAUAUGGUGAAGGCAUAGUCCAGGGAGCGGCGAAAGUCACACAAACCGG [C82A A111G A145G C150A U176C], GUGCCUUGCGCCGGGAAACCACGCAAGGGAUGGUGUCAAAUUCGGCGAAACCUAAGCGCCCGCCCGGGCGUAUGGCAACGCAGAGCCAAGCUUCGGCGCCUGCGCCGAUGGAGGUGUAGAGACUAGACGGCACCCACCUAAGGCGAACGAUAUGGUGAAGGCAUAGUCCAGGGAGGGGCGAAAGUCACACAAACCGG [C82A A111G A145G C150A U176G] is lower in reverse-splicing fitness: 0.0453 for the first, 0.0122 for the second.

First: GUGCCUUGCGCCGGGAAACCACGCAAGGGAUGGUGUCAAAUUCGGCGAAACCUAAGCGCCCGCCCGGGCGUAUGGCAACGCAGAGCCAAGCUUCGGCGCCUGCGCCGAUGGAGGUGUAGAGACUAGACGGCACCCACCUAAGGCGAACGAUAUGGUGAAGGCAUAGUCCAGGGAGAGGCGAAAGUCACACAAACCGG [C82A A111G A145G C150A U176A]
Second: GUGCCUUGCGCCGGGAAACCACGCAAGGGAUGGUGUCAAAUUCGGCGAAACCUAAGCGCCCGCCCGGGCGUAUGGCAACGCAGAGCCAAGCUUCGGCGCCUGCGCCGAUGGAGGUGUAGAGACUAGACGGCACCCACCUAAGGCGAACGAUAUGGUGAAGGCAUAGUCGAGGGAGCGGCGAAAGUCACACAAACCGG [C82A A111G A145G C150A C169G U176C]
The reverse-splicing fitness of the first is higher: 0.0293 for the first, 0.0256 for the second.

Compared with GUGCCUUGCGCCGGGAAACCACGCAAGGGAUGGUGUCAAAUUCGGCGAAACCUAAGCGCCCGCCCGGGCGUAUGGCAACGCAGAGCCAAGCUUCGGCGCCUGCGCCGAUGGAGGUGUAGAGACUAGACGGCACCCACCUAAGGCGAACGAUAUGGUGAAGGCAUAGUCGAGGGAGAGGCGAAAGUCACACAAACCGG [C82A A111G A145G C150A C169G U176A], GUGCCUUGCGCCGGGAAACCACGCAAGGGAUGGUGUCAAAUUCGGCGAAACCUAAGCGCCCGCCCGGGCGUAUGGCAACGCAGAGCCAAGCUUCGGCGCCUGCGCCGAUGGAGGUGUAGAGACUAGACGGCACCCACCUAAGGCGAACGAUAUGGUGAAGGCAUAGUCGAGGGAGGGGCGAAAGUCACACAAACCGG [C82A A111G A145G C150A C169G U176G] is lower in reverse-splicing fitness: 0.0224 for the first, 0.00702 for the second.

GUGCCUUGCGCCGGGAAACCACGCAAGGGAUGGUGUCAAAUUCGGCGAAACCUAAGCGCCCGCCCGGGCGUAUGGCAACGCAGAGCCAAGCUUCGGCGCCUGCGCCGAUGGAGGUGUAGAGACUAGACGGCACCCACCUAAGGCGAACGCUAUGGUGAAGGCAUAGUCCAGGGAGUGGCGAAAGUCACACAAACCGG [C82A A111G A145G] gave a reverse-splicing fitness of 0.419.

Source: the RNAGym collection of RNA variant scans (doi:10.1093/molbev/msab373)
